Assay results: article PMC2788276 (Protein Science : A Publication of the Protein Society, 2009)

How the values were obtained:
cross-linking = biological target: the molecule itself; assay: cross-linking
[1] = biological target: HCoV-OC43 N1-173 (N-terminal domain) (Human coronavirus OC43, UniProt P33469 1-173); assay: SPR
[2] = biological target: HCoV-OC43 N233-300 (central linker) (Human coronavirus OC43, UniProt P33469 233-300); assay: SPR
[3] = biological target: HCoV-OC43 N301-448 (C-terminal domain) (Human coronavirus OC43, UniProt P33469 301-448); assay: SPR

HCoV-OC43 N1-173 (N-terminal domain), sequence (P33469 1-173): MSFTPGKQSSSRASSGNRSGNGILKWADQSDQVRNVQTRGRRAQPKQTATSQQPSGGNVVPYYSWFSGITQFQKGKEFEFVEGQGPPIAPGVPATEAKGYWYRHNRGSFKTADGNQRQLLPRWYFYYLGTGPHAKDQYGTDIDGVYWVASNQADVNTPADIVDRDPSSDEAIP

B1: HCoV‐OC43 N protein, residues 233–448 (domain or fragment)
chain: ADQIASLVLAKLGKDATKPQQVTKHTAKEVRQKILNKPRQKRSPNKQCTVQQCFGKRGPNQNFGGGEMLKLGTSDPQFPILAELAPTAGAFFFGSRLELAKVQNLSGNPDEPQKDVYELRYNGAIRFDSTLSGFETIMKVLNENLNAYQQQDGMMNMSPKPQRQRGHKNGQGENDNISVAVPKSRVQQNKSRELTAEDISLLKKMDEPYTEDTSEI
Question: Does B1 bind (cross-linking)?
Answer: binds

Question: What does the source list for UCUAAACUCUAAACUCUAAACUCUAAAC (ssRNA) [(UCUAAAC)4 intergenic repeat RNA]?
Answer: Kd [1]: 68.9 ± 8.4 nM; Kd [2]: 64.1 ± 7.2 nM; binding result [3]: no binding
